T1: wild type 11-cis retinol dehydrogenase (Homo sapiens, UniProt Q92781)
T1 construct: expressed in transfected cells; host or cells: COS-1 cells (microsomes), vector pSG5
T1 sequence (Q92781 1-318): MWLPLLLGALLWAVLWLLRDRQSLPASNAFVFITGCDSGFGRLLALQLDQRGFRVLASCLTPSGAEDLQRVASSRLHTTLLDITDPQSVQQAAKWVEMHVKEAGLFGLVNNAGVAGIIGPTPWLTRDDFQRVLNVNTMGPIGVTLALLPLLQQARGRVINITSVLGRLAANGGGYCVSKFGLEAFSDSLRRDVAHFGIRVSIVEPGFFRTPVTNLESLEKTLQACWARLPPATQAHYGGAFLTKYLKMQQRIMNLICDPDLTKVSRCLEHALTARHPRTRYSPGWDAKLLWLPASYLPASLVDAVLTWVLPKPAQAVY

T2: 11-cis retinol dehydrogenase (RDH5) (Homo sapiens, UniProt Q92781)
T2 construct: expressed in transfected cells; host or cells: COS-1 cells (microsomes), vector pSG5
T2 sequence (Q92781 1-318): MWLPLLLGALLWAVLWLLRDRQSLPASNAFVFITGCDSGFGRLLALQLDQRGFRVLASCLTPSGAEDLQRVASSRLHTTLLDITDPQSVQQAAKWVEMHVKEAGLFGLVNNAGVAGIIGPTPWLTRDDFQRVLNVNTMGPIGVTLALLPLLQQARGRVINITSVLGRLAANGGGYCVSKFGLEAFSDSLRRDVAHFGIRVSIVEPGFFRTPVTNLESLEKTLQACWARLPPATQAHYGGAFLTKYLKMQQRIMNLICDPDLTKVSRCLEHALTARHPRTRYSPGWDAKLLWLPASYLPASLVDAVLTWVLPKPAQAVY


Experiments:
[1] = molecular target: T1, wild type 11-cis retinol dehydrogenase; experiment: Km and Vmax of wild type enzyme, oxidation of 11-cis retinol to 11-cis retinal by microsomes, HPLC; assay type: biochemical; conditions: 2 μg microsomal protein, 8-minute incubations, 5 mM NAD, 37° C., Lineweaver-Burk, average of duplicates 7.1 and 9.6
Protocol: To monitor the ability of the wild-type and mutant enzymes to catalyze the oxidation of 11-cis retinol to 11-cis retinal, 11-cis retinol, which had been synthesized by reduction of 11-cis retinal with NaBH4 and stored under argon at −80° C., was added to reaction mixtures containing microsomes from the transfected cells.
The enzyme reactions, in a total volume of 100 μp were carried out in 50 mM Tris-HCl buffer pH7.5 containing 5 mM NAD or NADH, […] 11-cis retinol, or 11-cis retinal, and microsomes at 37° C. All manipulations of retinoids were performed in dim light. The reactions were stopped by putting the tubes on ice, and the retinoids were immediately extracted with 200 μl n-hexane. Subsequently, 75 μl aliquots were analyzed by reverse-phase HPLC using a C18 column. The mobile phase was acetonitrile/water (85/15, v/v), and the column was eluted under isocratic conditions at a flow rate of 1 ml/min. 11-cis retinol and 11-cis retinal eluted at 12.0-12.2 and 14.0-14.3 minutes, respectively. Retinoids were quantified at 320 and 370 nm. […] Formed 11-cis retinal was quantified in the HPLC analyses, and the Km and Vmax values were calculated from Lineweaver-Burk plots. The values were compensated for the extraction efficiency (60-70%, as determined experimentally).

[2] = system: 11-cis retinol dehydrogenase (RDH5); experiment: Relative activities of wild type and mutant enzymes, oxidation of 11-cis retinol (forward reaction), microsomes, HPLC; assay type: biochemical, human; conditions: for ability to catalyze oxidation of 11-cis-retinol to 11-cis-retinal: 10 minutes at 37° C., 5 mM NAD, 50 μM 11-cis-retinol, mutant 20 μg, wild type 2 μg microsomes; for fold activity above background activity (mock transformants) / fold less activity than wild type enzyme: after 40 minutes incubation
Protocol: (§1) The relative activities of the wild type and mutant enzymes were then determined. To do this, microsomes containing a mutant enzyme (20 μg), or wild type enzyme(2 μg) together with 18 μg of microsomal protein from mock-transfected cells, to standardize the experimental conditions, or no enzyme were combined with 50 mM Tris-HCl buffer (pH 7.5), containing 5 mM of NAD, and 50 μM 11-cis-retinol (forward, oxidation reaction) or 5 mM NADH and 50 μM 11-cis-retinal (reverse, reduction reaction) in a total volume of 100 μl. 50 μM 11-cis retinol is approximately a seven-fold higher substrate concentration than the estimated Km value for the wild-type enzyme. The mixtures were incubated for 10 minutes at 37° C., after which the reactions were stopped by putting the mixtures on ice. Retinoids were extracted immediately with 200 μl of n-hexane. Subsequently, 75 μl aliquots were analyzed via reversed phase HPLC using a C18 column. The mobile phase was acetonitrile/water (85:15 v/v), and the column was eluted under isocratic conditions at a flow rate of 1 ml/min. The 11-cis-retinol eluted at 12.0-12.2 minutes, and 11-cis-retinal at 14.0-14.3 minutes. Retinoids were quantified at 320 (retinol) and 370 (retinal) nm. Relative activities of wild-type and mutant enzymes were calculated as the ratio of formed 11-cis retinal by transfected versus mock-transfected microsomes. The results were normalized for the total extracted retinoid content from each reaction.
The Gly238Trp mutant was tested further, to determine if it had any activity, by incubating for 20 and 40 minute periods before extracting retinoids. Wild type and Ser73Phe mutant were used as controls.

[3] = molecular target: T2, 11-cis retinol dehydrogenase (RDH5); experiment: Relative activities of wild type and mutant enzymes, reduction of 11-cis retinal (reverse reaction), microsomes, HPLC; assay type: biochemical; conditions: 10 minutes at 37° C., 5 mM NADH, 50 μM 11-cis-retinal
Protocol: as §1, with “The results were normalized for the total extracted retinoid content from each reaction.” left out

Molecule | Vmax [1] [nmol/mg protein/minute] | ability to catalyze oxidation of 11-cis-retinol to 11-cis-retinal [2] | fold activity above background activity (mock transformants) [2] [fold] | ability to catalyze reduction of 11-cis-retinal to 11-cis-retinol (reverse reaction) [3] | fold less activity than wild type enzyme [2]
CC1=C(/C=C/C(C)=C/C=C\C(C)=C\CO)C(C)(C)CCC1 [11-cis retinol] | 8.4 | – | – | – | –
wild type enzyme: wild type human 11-cis retinol dehydrogenase (RDH5) expressed in COS-1 cells (protein, UniProt Q92781 1-318, looked up) Retinol dehydrogenase 5: MWLPLLLGALLWAVLWLLRDRQSLPASNAFVFITGCDSGFGRLLALQLDQRGFRVLASCLTPSGAEDLQRVASSRLHTTLLDITDPQSVQQAAKWVEMHVKEAGLFGLVNNAGVAGIIGPTPWLTRDDFQRVLNVNTMGPIGVTLALLPLLQQARGRVINITSVLGRLAANGGGYCVSKFGLEAFSDSLRRDVAHFGIRVSIVEPGFFRTPVTNLESLEKTLQACWARLPPATQAHYGGAFLTKYLKMQQRIMNLICDPDLTKVSRCLEHALTARHPRTRYSPGWDAKLLWLPASYLPASLVDAVLTWVLPKPAQAVY | – | exhibited the expected ability to catalyze the oxidation | 42.9 ± 4.5 | catalyzed the reverse reaction | –
Ser73Phe mutant: mutant human 11-cis retinol dehydrogenase (RDH5), Ser to Phe at amino acid 73 (protein, UniProt Q92781 1-318, looked up, variant S73F) Retinol dehydrogenase 5: MWLPLLLGALLWAVLWLLRDRQSLPASNAFVFITGCDSGFGRLLALQLDQRGFRVLASCLTPSGAEDLQRVAFSRLHTTLLDITDPQSVQQAAKWVEMHVKEAGLFGLVNNAGVAGIIGPTPWLTRDDFQRVLNVNTMGPIGVTLALLPLLQQARGRVINITSVLGRLAANGGGYCVSKFGLEAFSDSLRRDVAHFGIRVSIVEPGFFRTPVTNLESLEKTLQACWARLPPATQAHYGGAFLTKYLKMQQRIMNLICDPDLTKVSRCLEHALTARHPRTRYSPGWDAKLLWLPASYLPASLVDAVLTWVLPKPAQAVY | – | residual activity | 9.1±1 | – | approximately 5 fold
Gly238Trp mutant: mutant human 11-cis retinol dehydrogenase (RDH5), Gly to Trp at amino acid 238 (protein, UniProt Q92781 1-318, looked up, variant G238W) Retinol dehydrogenase 5: MWLPLLLGALLWAVLWLLRDRQSLPASNAFVFITGCDSGFGRLLALQLDQRGFRVLASCLTPSGAEDLQRVASSRLHTTLLDITDPQSVQQAAKWVEMHVKEAGLFGLVNNAGVAGIIGPTPWLTRDDFQRVLNVNTMGPIGVTLALLPLLQQARGRVINITSVLGRLAANGGGYCVSKFGLEAFSDSLRRDVAHFGIRVSIVEPGFFRTPVTNLESLEKTLQACWARLPPATQAHYWGAFLTKYLKMQQRIMNLICDPDLTKVSRCLEHALTARHPRTRYSPGWDAKLLWLPASYLPASLVDAVLTWVLPKPAQAVY | – | no activity above background level | 2.2±0.14 | – | approximately 19 fold

From patent US6358728B1, “Mutations in nucleic acid molecules encoding 11-CIS retinol dehydrogenase, the mutated proteins, and uses thereof” (The President & Fellows of Havard College, priority 1999, dated 2002)
